Assay results reported in patent publication US20250179176A1, “ANTI-TIGIT ANTIBODIES AND USES OF THE SAME” (ARCUS BIOSCIENCES, INC., priority 2022, published 2025).

Columns and labels:
human FcγR3A (human) = human FcγR3A (human) (UniProt P08637); experiment: ELISA, FcγR3A coated on plate, anti-human IgG HRP, chemiluminescence
Human TIGIT (human) = Human TIGIT (human) (UniProt Q495A1); experiment: flow cytometry receptor occupancy on patients' whole blood, competitive anti-TIGIT antibody MBSA43 as detector, Q2W dosing
Human TIGIT (human), sequence (Q495A1 other isoform, or with tags, fused parts or gaps): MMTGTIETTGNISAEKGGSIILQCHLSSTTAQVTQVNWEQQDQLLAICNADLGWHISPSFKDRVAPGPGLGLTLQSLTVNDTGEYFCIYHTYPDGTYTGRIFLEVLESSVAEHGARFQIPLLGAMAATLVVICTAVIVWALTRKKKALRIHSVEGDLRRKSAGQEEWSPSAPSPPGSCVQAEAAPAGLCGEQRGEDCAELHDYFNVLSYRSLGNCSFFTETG

human FcγR3A (human), sequence (P08637 17-208 limits assumed): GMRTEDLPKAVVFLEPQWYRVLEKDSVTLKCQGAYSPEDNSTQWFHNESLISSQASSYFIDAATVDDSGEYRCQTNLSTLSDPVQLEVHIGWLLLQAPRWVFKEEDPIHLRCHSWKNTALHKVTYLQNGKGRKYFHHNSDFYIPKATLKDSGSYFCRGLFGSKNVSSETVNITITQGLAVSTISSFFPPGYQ

percent of the binding of human IgG1 to the same receptor (human FcγR3A (human)): 20% | receptor occupancy (RO) (Human TIGIT (human)): > 98%
Substance: domvanalimab (antibody)
